Assay results published in US20230212319A1, “NOVEL ANTIGEN BINDING DOMAINS AND SYNTHETIC ANTIGEN RECEPTORS INCORPORATING THE SAME” (University of Southern California, priority 2020, published 2023).

B1: 22225 (protein)
chain: MALPVTALLLPLALLLHAARPDIQMTQSPSSLSASVGDRVTITCKASDHINNWLAWYQQKPGQAPKLLIYGATTLETGVPSRFSGSGSGTDYTLTISSLQPEDFATYYCQQSWNTPWTFGQGTKLEIKRLEDLKNVFPPEVAVFEPSEAEISHTQKATLVCLATGFYPDHVELSWWVNGKEVHSGVCTDPQPLKEQPALNDSRYCLSSRLRVSATFWQNPRNHFRCQVQFYGLSENDEWTQDRAKPVTQIVSAEAWGRADCGFTSESYQQGVLSATILYEILLGKATLYAVLVSALVLMAMVKRKDSRGRAKRSGSGATNFSLLKQAGDVEENPGPTSATMDWIWRILFLVGAATGAHSGPEVQLVESGGGLVQAGGSLRLSCAASGRTFTMGWFRQAPGKEREFVAAISLSPTLAYYADSVKGRFTISRDNAKNTVVLQMNSLKPEDTALYYCAADRKSVMSIRPDYWGQGTQVTVSSGSGPLGIAGIFEQVQLQQPGAELVKPGASVKMSCKASGYAFSSYWINWMKQKPGQGLEWIGQIYPGDGDTNYNGKFKGRATLTADTSSSTAYMQLSSLTSEDSAVYFCARSITTVVGCAMDYWGQGTSVTVSSTRIQNPDPAVYQLRDSKSSDKSVCLFTDFDSQTNVSQSKDSDVYITDKCVLDMRSMDFKSNSAVAWSNKSDFACANAFNNSIIPEDTFFPSPESSCDVKLVEKSFETDTNLNFQNLSVIGFRILLLKVAGFNLLMTLRLWSSRAKRSGSGVKQTLNFDLLKLAGDVESNPGPSRGHMTEYKPTVRLATRDDVPRAVRTLAAAFADYPATRHTVDPDRHIERVTELQELFLTRVGLDIGKVWVADDGAAVAVWTTPESVEAGAVFAEIGPRMAELSGSRLAAQQQMEGLLAPHRPKEPAWFLATVGVSPDHQGKGLGSAVVLPGVEAAERAGVPAFLETSAPRNLPFYERLGFTVTADVEVPEGPRTWCMTRKPGA
B2: 22250 (protein)
chain: B1 chain
B3: 9694 (protein)
chain: MALPVTALLLPLALLLHAARPDIVMTQSHKFMSTSVGDRVSIICKASQDVGTAVDWYQQKPGQSPKLLIYWASTRHTGVPDRFTGSGSGTDFTLAITNVQSEDLADYFCQQYNSYPLTFGAGTKLEIKRLEDLKNVFPPEVAVFEPSEAEISHTQKATLVCLATGFYPDHVELSWWVNGKEVHSGVCTDPQPLKEQPALNDSRYCLSSRLRVSATFWQNPRNHFRCQVQFYGLSENDEWTQDRAKPVTQIVSAEAWGRADCGFTSESYQQGVLSATILYEILLGKATLYAVLVSALVLMAMVKRKDSRGRAKRSGSGATNFSLLKQAGDVEENPGPTSMDWIWRILFLVGAATGAHSFEEVQLQQSGPELVKPGTSVRISCKTSGYTFTEYTIHWVKQSHGKSLEWIGNINPNNGGTTYNQKFEDKATLTVDKSSSTAYMELRSLTSEDSAVYYCAAGWNFDYWGQGTTLTVSSTRIQNPDPAVYQLRDSKSSDKSVCLFTDFDSQTNVSQSKDSDVYITDKCVLDMRSMDFKSNSAVAWSNKSDFACANAFNNSIIPEDTFFPSPESSCDVKLVEKSFETDTNLNFQNLSVIGFRILLLKVAGFNLLMTLRLWSS
modifications: Synthetic Polynucloetide
B4: 9832 (protein)
chain: MALPVTALLLPLALLLHAARPDIQMTQSPSSLSASVGDRVTITCKASQDVGTAVDWYQQKPGKAPKLLISWASTRHTGVPSRFSGSGSGTDFTLTISSLQPEDFATYFCQQYNSYPLTFGQGTKVEIKRTVLEDLKNVFPPEVAVFEPSEAEISHTQKATLVCLATGFYPDHVELSWWVNGKEVHSGVCTDPQPLKEQPALNDSRYCLSSRLRVSATFWQNPRNHFRCQVQFYGLSENDEWTQDRAKPVTQIVSAEAWGRADCGFTSESYQQGVLSATILYEILLGKATLYAVLVSALVLMAMVKRKDSRGRAKRSGSGATNFSLLKQAGDVEENPGPTSMDWIWRILFLVGAATGAHSFEQVQLVQSGAEVKKPGESVKVSCKASGYTFTEYTIHWVRQAPGQGLEWMGNINPNNGGTTYNQKFEDRVTITADKSTSTAYMELSSLRSEDTAVYYCARGWNFDYWGQGTTVTVSSTRIQNPDPAVYQLRDSKSSDKSVCLFTDFDSQTNVSQSKDSDVYITDKCVLDMRSMDFKSNSAVAWSNKSDFACANAFNNSIIPEDTFFPSPESSCDVKLVEKSFETDTNLNFQNLSVIGFRILLLKVAGFNLLMTLRLWSS
modifications: Synthetic Polynucloetide
B5: 9763 (protein)
chain: MALPVTALLLPLALLLHAARPDIQMTQSPSSLSASVGDRVTITCKASQDVGTAVDWYQQKPGKAPKLLIYWASTRHTGVPSRFSGSGSGTDFTLTISSLQPEDFATYYCQQYNSYPLTFGQGTKVEIKRLEDLKNVFPPEVAVFEPSEAEISHTQKATLVCLATGFYPDHVELSWWVNGKEVHSGVCTDPQPLKEQPALNDSRYCLSSRLRVSATFWQNPRNHFRCQVQFYGLSENDEWTQDRAKPVTQIVSAEAWGRADCGFTSESYQQGVLSATILYEILLGKATLYAVLVSALVLMAMVKRKDSRGRAKRSGSGATNFSLLKQAGDVEENPGPTSMDWIWRILFLVGAATGAHSFEEVQLVESGGGLVQPGGSLRLSCAASGYTFTEYTIHWVRQAPGKGLEWVANINPNNGGTTYNQKFEDRFTISRDNSKNTLYLQMNSLRAEDTAVYYCARGWNFDYWGQGTLVTVSSTRIQNPDPAVYQLRDSKSSDKSVCLFTDFDSQTNVSQSKDSDVYITDKCVLDMRSMDFKSNSAVAWSNKSDFACANAFNNSIIPEDTFFPSPESSCDVKLVEKSFETDTNLNFQNLSVIGFRILLLKVAGFNLLMTLRLWSS
modifications: Synthetic Polynucloetide

Legend:
L363 cells = assay: JNG assay, co-culture with L363 cells; type: cell-based; settings: co-culture with L363
Summary of the method: (§1)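 Jurkat NFAT-GFP (JNG) cells stably transduced with SARs by lentivirus, with drug selection where the construct carried a resistance gene, then co-cultured with target cells at E:T ~1:2 for ~4–18 h. % GFP-positive cells measured by FACS against parental JNG; +/- to 5+ correspond to ~5–50% GFP-positive.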

U266 cells = assay: JNG NFAT-GFP induction on co-culture with U266; type: cell-based
RAJI-CD19-KO cells = assay: JNG assay, co-culture with RAJI-CD19-KO cells; type: cell-based; settings: co-culture with Raji-CD19-KO
Summary of the method: as §1

Nalm6 cells = assay: JNG assay, co-culture with Nalm6 cells; type: cell-based; settings: co-culture with Nalm6
Summary of the method: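 Read-out: % GFP-positive cells by flow cytometry after ~4 to 18 h coculture of SAR-transduced JNG cells with targets (E:T about 1:2). Scores reflect GFP induction above parental JNG controls: +/- ≈5%, + ≈10%, up to 5+ ≈50%.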

RS;411 = assay: JNG assay, co-culture with RS;411 cells; type: cell-based; settings: co-culture with RS411
Summary of the method: as §1

LNCaP-LucPPe cells = assay: LNCaP-LucPPE xenograft in NSG mice, with rechallenge; type: in vivo; settings: for tumor control (bioluminescence imaging, caliper tumor volume), LNCaP-LucPPE xenograft: 1 × 10^6 LNCaP-LucPPe s.c., 17 days later 3 × 10^6 T cells i.v., male NSG mice; for survival, LNCaP-LucPPE xenograft: mouse, in vivo

Molecule | NFAT-GFP ASSAY: L363 (L363 cells) | NFAT-GFP ASSAY: U266 (U266 cells) | NFAT-GFP ASSAY: Raji-CD19-KO (RAJI-CD19-KO cells) | NFAT-GFP ASSAY: Nalm6 (Nalm6 cells) | NFAT-GFP ASSAY: RS411 (RS;411) | tumor control (bioluminescence imaging, caliper tumor volume), LNCaP-LucPPE xenograft (LNCaP-LucPPe cells) | survival, LNCaP-LucPPE xenograft (LNCaP-LucPPe cells)
B1 | 3+ (refer to approximately 5%, 10%, 20%, 30%, 40% and 50% GFP positive cells) | 5+ (refer to approximately 5%, 10%, 20%, 30%, 40% and 50% GFP positive cells) | 4+ (refer to approximately 5%, 10%, 20%, 30%, 40% and 50% GFP positive cells) | 3+ (refer to approximately 5%, 10%, 20%, 30%, 40% and 50% GFP positive cells) | 2+ (refer to approximately 5%, 10%, 20%, 30%, 40% and 50% GFP positive cells) |  | 
B2 | 3+ (refer to approximately 5%, 10%, 20%, 30%, 40% and 50% GFP positive cells) | 5+ (refer to approximately 5%, 10%, 20%, 30%, 40% and 50% GFP positive cells) | 4+ (refer to approximately 5%, 10%, 20%, 30%, 40% and 50% GFP positive cells) | 3+ (refer to approximately 5%, 10%, 20%, 30%, 40% and 50% GFP positive cells) | 2+ (refer to approximately 5%, 10%, 20%, 30%, 40% and 50% GFP positive cells) |  | 
B3 |  |  |  |  |  | effective control of tumor | improvement in survival
B4 |  |  |  |  |  | effective control of tumor | improvement in survival
B5 |  |  |  |  |  | effective control of tumor | improvement in survival
